Measured values from patent US20060287236A1 (BIO RAD LABORATORIES, published 2006).

Biological target: T1, transferrin receptor (TfR) (human, UniProt P02786 1-760)
T1 construct: whole, on cells; also called 100 and 200 kDa proteins
Assay: immunoprecipitation of surface-biotinylated 293 cell proteins with HFE or FLAG antibodies
Protocol: Cell surface protein biotinylations. Cells (4×10⁶) were seeded into 100 mm dishes and grown overnight to 80% confluency. The plates were moved to 4° C. and gently washed four times with PBS. Suflo-NHS-LC Biotin (Pierce) was added in PBS to a final concentration of 500 g/ml and incubated on ice for 30 mins. The Biotin reagent was removed and the plates washed 4 times with PBS containing 50 mM glycine. Cells were lysed in 500 ml of 25 mM Tris-HCL, pH 7.5 150 mM NaCl plus 0.5% NP-40. […] Precipitated proteins were separated on 4-20% Tris-glycine polyacrylamide gels (Novex), electroblotted to PVDF membranes (Novex) and biotinylated proteins were visualized with 2 μg/ml of streptavidin-HRP (Pierce) followed by ECL detection reagents (Amersham).
Biotinylated proteins were detected with streptavidin-conjugated horseradish peroxidase (HRP).

T1 sequence (P02786 whole entry): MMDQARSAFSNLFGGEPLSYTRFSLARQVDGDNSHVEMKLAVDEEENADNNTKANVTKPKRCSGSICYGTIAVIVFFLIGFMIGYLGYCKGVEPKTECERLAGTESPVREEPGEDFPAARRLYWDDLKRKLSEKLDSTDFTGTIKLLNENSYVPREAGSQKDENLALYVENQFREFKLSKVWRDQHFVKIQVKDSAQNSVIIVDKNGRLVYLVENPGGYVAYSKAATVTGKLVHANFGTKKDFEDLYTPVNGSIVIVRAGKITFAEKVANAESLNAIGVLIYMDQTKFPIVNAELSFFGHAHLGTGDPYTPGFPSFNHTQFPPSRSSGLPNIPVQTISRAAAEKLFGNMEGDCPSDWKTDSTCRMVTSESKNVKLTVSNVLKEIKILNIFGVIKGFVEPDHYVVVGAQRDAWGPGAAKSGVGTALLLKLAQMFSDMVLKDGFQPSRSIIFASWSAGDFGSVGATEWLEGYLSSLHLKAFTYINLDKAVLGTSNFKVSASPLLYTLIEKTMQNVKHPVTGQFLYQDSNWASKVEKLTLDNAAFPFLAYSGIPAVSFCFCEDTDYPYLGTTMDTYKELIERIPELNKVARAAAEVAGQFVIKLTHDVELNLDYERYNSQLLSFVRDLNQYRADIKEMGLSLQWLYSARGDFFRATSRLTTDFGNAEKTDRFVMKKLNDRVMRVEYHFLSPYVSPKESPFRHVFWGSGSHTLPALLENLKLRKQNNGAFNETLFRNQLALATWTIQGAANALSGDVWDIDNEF

B1: C282Y HFE mutant over-expressed in 293 cells (other, UniProt Q30201 23-348, looked up)
MHC heavy: RLLRSHSLHYLFMGASEQDLGLSLFEALGYVDDQLFVFYDHESRRVEPRTPWVSSRISSQMWLQLSQSLKGWDHMFTVDFWTIMENHNHSKESHTLQVILGCEMQEDNSTEGYWKYGYDGQDHLEFCPDTLDWRAAEPRAWPTKLEWERHKIRARQNRAYLERDCPAQLQQLLELGRGVLDQQVPPLVKVTHHVTSSVTTLRCRALNYYPQNITMKWLKDKQPMDAKEFEPKDVLPNGDGTYQGWITLAVPPGEEQRYTYQVEHPGLDQPLIVIWEPSPSGTLVIGVISGIAVFVVILFIGILFIILRKRQGSRGAMGHYVLAERE
notes: also called C282Y mutant
  binding result: no binding
